Publication PMC4744555, “Pi Release Limits the Intrinsic and RNA-Stimulated ATPase Cycles of DEAD-Box Protein 5 (Dbp5)” (Journal of Molecular Biology, 2016)
Blank lines part the entries; values can stand above or below the molecule they belong to.

Key:
Dbp5 [1] = biological target: T1, Dbp5 (Saccharomyces cerevisiae, UniProt P20449); assay: transient Pi release lag phase, phosphate binding protein (PiBiP), stopped flow; format: biochemical; details: no RNA; 30 mM Hepes pH 7.5, 100 mM KCl, 2 mM MgCl2, 2 mM DTT, 25 °C; ATP dissociation constant from lag-phase dependence; also determined by mant-nucleotide competition
T1 construct: full-length, N-terminal 6xHis tag, expressed in E. coli
T1 sequence (P20449 1-482): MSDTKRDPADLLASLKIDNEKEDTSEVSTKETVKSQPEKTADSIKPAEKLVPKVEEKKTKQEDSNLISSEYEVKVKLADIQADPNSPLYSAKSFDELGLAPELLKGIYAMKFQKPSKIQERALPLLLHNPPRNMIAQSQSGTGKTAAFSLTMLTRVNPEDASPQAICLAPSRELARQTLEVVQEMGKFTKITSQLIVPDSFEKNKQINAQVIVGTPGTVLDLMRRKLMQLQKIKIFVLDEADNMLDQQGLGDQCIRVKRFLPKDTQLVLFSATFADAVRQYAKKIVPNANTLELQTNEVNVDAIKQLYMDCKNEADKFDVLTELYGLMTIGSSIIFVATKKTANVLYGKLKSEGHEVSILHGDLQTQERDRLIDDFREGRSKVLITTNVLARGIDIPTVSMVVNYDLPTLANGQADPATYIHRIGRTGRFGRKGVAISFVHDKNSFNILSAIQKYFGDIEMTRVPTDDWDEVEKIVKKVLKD
Description: transient Pi release lag phase, phosphate binding protein (PiBiP), stopped flow on Dbp5

Dbp5 [2] = biological target: T1, Dbp5; assay: kinetic competition with mantADP, FRET stopped flow; format: binding; details: no RNA; 30 mM Hepes pH 7.5, 100 mM KCl, 2 mM MgCl2, 2 mM DTT, 25 °C
Description: kinetic competition with mantADP, FRET stopped flow on Dbp5

Dbp5 [3] = biological target: T1, Dbp5; assay: FRET stopped flow, total fluorescence amplitude; format: binding
Description: FRET stopped flow, total fluorescence amplitude on Dbp5

[4] = substrate: Nc1ncnc2c1ncn2[C@@H]1O[C@H](COP(=O)(O)OP(=O)(O)OP(=O)(O)O)[C@@H](O)[C@H]1O; assay: NADH-coupled steady-state ATPase assay; format: biochemical, Saccharomyces cerevisiae; details: no RNA, 30 mM Hepes pH 7.5, 100 mM KCl, 2 mM MgCl2, 2 mM DTT, 25 °C
Description: (§1) NADH-coupled steady-state ATPase assay on Dbp5

[5] = substrate: Nc1ncnc2c1ncn2[C@@H]1O[C@H](CO[P@](=O)(O)O[P@](=O)(O)O[P@@](=O)(O)S)[C@@H](O)[C@H]1O; assay: NADH-coupled steady-state ATPase assay; format: biochemical, Saccharomyces cerevisiae; details: no RNA, 30 mM Hepes pH 7.5, 100 mM KCl, 2 mM MgCl2, 2 mM DTT, 25 °C
Description: as §1

Kd (Dbp5 [1]): 4000 µM
Molecule: Nc1ncnc2c1ncn2[C@@H]1O[C@H](COP(=O)(O)OP(=O)(O)OP(=O)(O)O)[C@@H](O)[C@H]1O [ATP]

Kd (Dbp5 [2]): 360 µM
Molecule: Nc1ncnc2c1ncn2[C@@H]1O[C@H](COP(=O)(O)OP(=O)(O)O)[C@@H](O)[C@H]1O [ADP]

Kd (Dbp5 [3]): 1 µM
Molecule: CNc1ccccc1C(=O)O[C@H]1[C@@H](O)[C@H](n2cnc3c(N)ncnc32)O[C@@H]1CO[P@@](=O)(O)O[P@](=O)(O)OP(=O)(O)O [mantATP]

B1: Dbp5 (Saccharomyces cerevisiae S288C) (protein)
chain: T1 sequence (P20449 1-482)
notes: full-length, N-terminal 6xHis tag, expressed in E. coli
Km [4]: 1.7 (± 0.2) mM
kcat [4]: 0.043 (± 0.001) s^− 1
Km [5]: 0.98 (± 0.06) mM
kcat [5]: 0.036 (± 0.001) s^− 1
